Experimental data taken from patent US20200317768A1 (published 2020).

T1: human FcγRIIb constitutively expressed on MDCK cells (human, UniProt P31994 43-310)
T1 sequence (looked up): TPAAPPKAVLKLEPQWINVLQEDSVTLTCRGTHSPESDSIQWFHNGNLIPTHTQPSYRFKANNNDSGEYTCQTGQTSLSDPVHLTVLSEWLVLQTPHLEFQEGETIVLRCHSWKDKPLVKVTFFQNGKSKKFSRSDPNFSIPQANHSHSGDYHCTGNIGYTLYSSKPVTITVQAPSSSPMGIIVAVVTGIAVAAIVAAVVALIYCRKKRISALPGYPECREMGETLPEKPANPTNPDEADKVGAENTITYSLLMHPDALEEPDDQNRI

T2: cynomolgus monkey FcγRIIa1 extracellular domain with C-terminal His-tag (cynomolgus monkey)
T2 construct: also called cyno FcgRIIa1; cynoFcγRIIa1
T2 chain: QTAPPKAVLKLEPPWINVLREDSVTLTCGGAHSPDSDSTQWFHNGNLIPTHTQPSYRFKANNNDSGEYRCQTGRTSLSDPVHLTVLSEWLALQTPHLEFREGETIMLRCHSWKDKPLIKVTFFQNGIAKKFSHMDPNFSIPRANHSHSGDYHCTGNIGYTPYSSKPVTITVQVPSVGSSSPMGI

T3: cynomolgus monkey FcγRIIa2 extracellular domain with C-terminal His-tag (cynomolgus monkey)
T3 construct: also called cyno FcgRIIa2; cynoFcγRIIa2
T3 chain: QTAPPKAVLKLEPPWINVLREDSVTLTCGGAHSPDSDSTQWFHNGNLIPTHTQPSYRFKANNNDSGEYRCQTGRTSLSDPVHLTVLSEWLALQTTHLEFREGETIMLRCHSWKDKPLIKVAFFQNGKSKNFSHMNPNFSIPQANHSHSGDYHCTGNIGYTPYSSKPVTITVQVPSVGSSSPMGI

T4: cynomolgus monkey FcγRIIb extracellular domain with C-terminal His-tag (cynomolgus monkey)
T4 construct: also called cyno FcgRIIb; cynoFcγRIIb
T4 chain: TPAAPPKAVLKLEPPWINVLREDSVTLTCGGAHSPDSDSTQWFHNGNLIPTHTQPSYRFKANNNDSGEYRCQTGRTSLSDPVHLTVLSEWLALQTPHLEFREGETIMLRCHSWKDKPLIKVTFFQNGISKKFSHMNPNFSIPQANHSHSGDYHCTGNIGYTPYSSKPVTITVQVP

T5: human FcγRIIaH extracellular domain with C-terminal His-tag (human, UniProt P12318 34-217)
T5 construct: also called human FcgRIIaH; FcγRIIa (type H)
T5 sequence: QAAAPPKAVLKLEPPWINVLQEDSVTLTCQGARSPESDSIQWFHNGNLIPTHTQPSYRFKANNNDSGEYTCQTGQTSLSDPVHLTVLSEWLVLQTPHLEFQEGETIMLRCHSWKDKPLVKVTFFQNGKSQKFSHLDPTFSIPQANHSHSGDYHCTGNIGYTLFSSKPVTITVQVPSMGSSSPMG

T6: human FcγRIIaR extracellular domain with C-terminal His-tag (human, UniProt P12318 34-217)
T6 construct: also called human FcgRIIaR; FcγRIIa (type R)
T6 chain: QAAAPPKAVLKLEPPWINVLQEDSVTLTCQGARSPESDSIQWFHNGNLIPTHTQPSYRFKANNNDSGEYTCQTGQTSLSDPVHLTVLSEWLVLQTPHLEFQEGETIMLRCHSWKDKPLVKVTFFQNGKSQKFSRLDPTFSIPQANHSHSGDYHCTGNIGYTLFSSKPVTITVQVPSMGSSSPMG

T7: human FcγRIIb extracellular domain with C-terminal His-tag (human, UniProt P31994 43-217)
T7 construct: also called human FcgRIIb
T7 sequence: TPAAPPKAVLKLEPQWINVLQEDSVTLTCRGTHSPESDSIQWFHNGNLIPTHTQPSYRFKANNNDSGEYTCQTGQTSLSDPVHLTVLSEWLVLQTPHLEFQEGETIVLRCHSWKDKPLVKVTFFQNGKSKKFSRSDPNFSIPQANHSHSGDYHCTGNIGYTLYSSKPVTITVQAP


Experiments:
[1] = biological target: T1, human FcγRIIb constitutively expressed …; assay: cell-based or functional assay
[2] = biological target: T2, cynomolgus monkey FcγRIIa1 …; assay: SPR (BIACORE); KD of SG1 / KD of variant;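 further: relative to parent M103205H795-SG1 carrying the SG1 human heavy chain constant region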
[3] = biological target: T3, cynomolgus monkey FcγRIIa2 …; assay: SPR (BIACORE); KD of SG1 / KD of variant;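 further: relative to parent M103205H795-SG1 carrying the SG1 human heavy chain constant region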
[4] = biological target: T4, cynomolgus monkey FcγRIIb extracellular …; assay: SPR (BIACORE); KD of SG1 / KD of variant;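 further: relative to parent M103205H795-SG1 carrying the SG1 human heavy chain constant region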
[5] = biological target: T5, human FcγRIIaH extracellular domain …; assay: SPR (BIACORE); KD of SG1 / KD of variant;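 further: relative to parent M103205H795-SG1 carrying the SG1 human heavy chain constant region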
[6] = biological target: T6, human FcγRIIaR extracellular domain …; assay: SPR (BIACORE); KD of SG1 / KD of variant
[7] = biological target: T7, human FcγRIIb extracellular domain with …; assay: SPR (BIACORE); KD of SG1 / KD of variant

Row | celluar uptake [1] | KD fold (SG1 = 1) [2] [fold] | KD fold (SG1 = 1) [3] [fold] | KD fold (SG1 = 1) [4] [fold] | KD fold (SG1 = 1) [5] [fold] | KD fold (SG1 = 1) [6] [fold] | KD fold (SG1 = 1) [7] [fold] | Binder
1 | 1 relative to SG1 (=1.00) | – | – | – | – | – | – | MS1032LO06-SG1 (M103205H795-SG1/M103202L889-SK1) (antibody, human IgG1, kappa, Anti-latent myostatin antibody) heavy: not shown light: DIVMTQSPATLSLSPGERATLSCTSSQSVYHANWLSWFQQKPGQPPKLLIYWASTLAYGVPSRFSGSGSGTDFTLTISSLQPEDAATYYCAGGYGGGRYAFGQGTKVEIKRTVAAPSVFIFPPSDEQLKSGTASVVCLLNNFYPREAKVQWKVDNALQSGNSQESVTEQDSKDSTYSLSSTLTLSKADYEKHKVYACEVTHQGLSSPVTKSFNRGEC
2 | – | 1 | 1 | 1 | 1 | 1 | 1 | MS_M103205H795-SG1/M103202L889-SK1 (antibody, human IgG1, kappa, Parent antibody of the Fc variants; also called MS1032LO06-SG1) heavy: not shown light: DIVMTQSPATLSLSPGERATLSCTSSQSVYHANWLSWFQQKPGQPPKLLIYWASTLAYGVPSRFSGSGSGTDFTLTISSLQPEDAATYYCAGGYGGGRYAFGQGTKVEIKRTVAAPSVFIFPPSDEQLKSGTASVVCLLNNFYPREAKVQWKVDNALQSGNSQESVTEQDSKDSTYSLSSTLTLSKADYEKHKVYACEVTHQGLSSPVTKSFNRGEC
